Laboratory results: the RNAGym collection of RNA variant scans (doi:10.7554/elife.80360)

B1: Hairpin Ribozyme (parent)
chain: GUCCUCUUUCACGUGCGCGUGAAAGAGAGAAGUGAACCAGAGAAACACACGUUGUGGUAUAUUACCUGGUA

Variants of: B1
Test: self-cleavage, relative activity (ratio to wild type); higher = more cleavage; co-transcriptional

Variant	self-cleavage
C38U G54U	0.336
G17A A44U	0.183
G17C C38A	0.199
U14A G19C	0.819
C6A A39C	0.436
U5C C10U	0.423
A31U A64C	0.0924
U8C C46A	0.102
C46G C66A	0.253
C10G U58G	0.441
U55A G56U	0.148
A11U U70C	0.848
G54C A71G	0.438
G15U A22G	1.12
U5G G19U	0.274
U5G U55C	0.121
C4A C48U	0.15
G1C G57U	0.0983
A35G G40U	0.161
U7G A39C	0.48
C10A U63C	0.207
C18A A47G	0.216
G19A A23G	0.948
U2C C37U	0.113

Variant	self-cleavage
C10A U67C	0.188
G29C A47U	0.093
U7A A43U	0.216
A24C A59U	0.204
A31C U63G	0.119
A31C U63C	0.23
C6A A49U	0.162
G27C G56A	0.0609
A30U G42C	0.114
A43G U60A	0.202
C50U G68U	0.16
G19C A45G	0.277
G42A U55A	0.104
A26C A39G	0.222
C6G C65U	0.221
A41C U62A	0.325
A45G A49G	0.177
G40C C46A	0.155
G1U G40U	0.111
A23U U55C	0.358
G19A U70C	0.922
G69U	0.243
G15U G21C	0.829
A43G C48A	0.174

Variant	self-cleavage
C48A	0.157
G54C A64U	0.155
A24G C38A	0.125
C50A U70G	0.252
C46G G54U	0.119
U5A A23C	0.436
G1A U14A	0.127
A11G G19U	0.979
G13C G19U	0.752
U7C A61U	0.175
U52C U62A	0.32
G21A G57A	0.192
A11G A24U	0.968
U2C U53A	0.322
C50A A59U	0.231
U9G A23G	0.72
U14G A24C	0.887
A11U C38G	0.128
U8G A24G	0.632
G32U A71C	0.206
G17C C48U	0.148
U5A G69C	0.0571
A41C A44C	0.0994
G56C U63G	0.175

Variant	self-cleavage
U5C G32C	0.0586
A23G A26G	0.648
U7C G21U	0.565
G27U A30U	0.116
U5C C12A	0.566
U2G A35G	0.213
G29A A39U	0.107
A36G U60A	0.779
A24U A45G	0.241
G17A U55G	0.161
G1C A59C	0.113
U14C G29U	0.198
G15U A39C	0.7
C16G A47U	0.06
A31C A44G	0.174
A45C G51C	0.0857
C46A C65A	0.13
G13C G17U	0.492
U8C C66G	0.0616
U33C U70A	0.0822
G25U C50G	0.25
G42A G69C	0.118
G27A G34A	0.551
C4U A71C	0.622

Variant	self-cleavage
C65G C66G	0.178
A30U A44G	0.064
U53A A71C	1.41
A45C G57U	0.249
C48G G68U	0.163
A59G G68U	0.235
A22C A47G	0.187
G17U A28U	0.51
G17A A26C	0.75
C12A G15A	0.801
A45G U62G	0.12
C16G G56C	0.2
A22C G32C	0.106
C6G A28U	0.22
G21A U33C	0.116
U20C A39C	0.562
C37A A49G	0.325
U20C A44C	0.155
G25A G32U	0.144
G15C G69A	0.414
A22U U70A	0.768
U55G C66U	0.422
G56U A61G	0.178
C18A A71U	0.831

Variant	self-cleavage
G25A U58A	0.376
U8C G69A	0.327
U7C A44G	0.0315
A36U U67C	0.133
G13U U62C	0.291
G13A G40C	0.152
G19A G21C	0.673
A35U U58A	0.464
A45C	0.154
A45U	0.14
G32A U58G	0.16
A45C A64G	0.259
G57U C65A	0.271
U2A A59U	0.141
C50A U58C	0.144
A11U G68C	0.13
C16A G17A	1.02
U2A G15A	0.216
C12A A47U	0.132
G27A G29A	0.189
G15U A30C	0.173
C6A U58A	0.457
G32C A59C	0.198
G17U C46U	0.14

Variant	self-cleavage
U8G C66U	0.412
G51U U53A	1.07
A45U U63A	0.148
G1U G27U	0.199
A23C C66U	0.448
G21C A43U	0.0826
U5C C46A	0.139
A23G A41C	1.19
U14C U53G	0.936
A36G G42A	0.23
G15C A41G	1.04
A36U C66A	0.114
C46U U55G	0.125
C3A C4A	0.204
U20A G40C	0.0677
U7C A31U	0.112
C6G A71U	0.409
A39U A49C	0.145
G51C G68A	0.254
A35G A43U	0.223
G32U U55A	0.0859
A31C C38G	0.196
U9G A44C	0.0667
